Test results as given in publication PMC4783047, “Determinants of Amyloid Formation for the Yeast Termination Factor Nab3” (PLoS ONE, 2016).

Tests used:
thioflavin T = assay: Thioflavin T fluorescence; conditions: value read at the wild-type emission peak, about 480 nm; the mutant trace lies on the zero line over the whole 460-595 nm spectrum; parent: est. 66; read off a plot
[1] = target: the molecule itself; assay: transmission electron microscopy of filaments (negative stain); purified, concentrated protein left undisturbed (4°C, or 4°C or 22°C for the LCD proteins) for days to weeks; 1% phosphotungstic acid stain; self-assembly into filaments

response (thioflavin T)	Molecule	binding result [1]
0	Nab3 low complexity domain, C-terminal 134 amino acids of Nab3 (Nab3^134) (from UniProt P38996) Q2E; Q7E; Q9E; Q15E; Q30E; Q32E; Q34E; Q39E; Q41E; Q47E; Q50E; Q52E; Q55E; Q57E; Q59E; Q82E; Q96E; Q101E; Q105E; Q107E; Q109E; Q111E; Q113E; Q115E	–
–	Full-length Nab3 (natural protein, S. cerevisiae, UniProt P38996 1-802, looked up, Nab3, S. cerevisiae transcription termination factor, 802 amino acids; also called full-length wildtype Nab3; the entire 802-residue protein) MSDENHNSDVQDIPSPELSVDSNSNENELMNNSSADDGIEFDAPEEEREAEREEENEEQHELEDVNDEEEEDKEEKGEENGEVINTEEEEEEEHQQKGGNDDDDDDNEEEEEEEEDDDDDDDDDDDDEEEEEEEEEEGNDNSSVGSDSAAEDGEDEEDKKDKTKDKEVELRRETLEKEQKDVDEAIKKITREENDNTHFPTNMENVNYDLLQKQVKYIMDSNMLNLPQFQHLPQEEKMSAILAMLNSNSDTALSVPPHDSTISTTASASATSGARSNDQRKPPLSDAQRRMRFPRADLSKPITEEEHDRYAAYLHGENKITEMHNIPPKSRLFIGNLPLKNVSKEDLFRIFSPYGHIMQINIKNAFGFIQFDNPQSVRDAIECESQEMNFGKKLILEVSSSNARPQFDHGDHGTNSSSTFISSAKRPFQTESGDMYNDDNGAGYKKSRRHTVSCNIFVKRTADRTYAIEVFNRFRDGTGLETDMIFLKPRMELGKLINDAAYNGVWGVVLVNKTHNVDVQTFYKGSQGETKFDEYISISADDAVAIFNNIKNNRNNSRPTDYRAMSHQQNIYGAPPLPVPNGPAVGPPPQTNYYQGYSMPPPQQQQQQPYGNYGMPPPSHDQGYGSQPPIPMNQSYGRYQTSIPPPPPQQQIPQGYGRYQAGPPPQPPSQTPMDQQQLLSAIQNLPPNVVSNLLSMAQQQQQQPHAQQQLVGLIQSMQGQAPQQQQQQLGGYSSMNSSSPPPMSTNYNGQNISAKPSAPPMSHQPPPPQQQQQQQQQQQQQQQQPAGNNVQSLLDSLAKLQK	binds
–	Nab3 low complexity domain, C-terminal 134 amino acids of Nab3 (Nab3^134) (domain or fragment, S. cerevisiae, UniProt P38996 669-802, looked up, Inserted between the BglII and XhoI sites of pET32a; also called Nab3 LCD; wildtype LCD) SQTPMDQQQLLSAIQNLPPNVVSNLLSMAQQQQQQPHAQQQLVGLIQSMQGQAPQQQQQQLGGYSSMNSSSPPPMSTNYNGQNISAKPSAPPMSHQPPPPQQQQQQQQQQQQQQQQPAGNNVQSLLDSLAKLQK	binds
–	Pcf11 low complexity domain (residues 228-287) (domain or fragment, yeast, UniProt P39081 228-287, looked up, Pcf11, yeast transcription termination factor, codon 228 to codon 287 (core prion-like domain as defined by Alberti et al.); Inserted between the BglII and XhoI sites of pET32a; also called Pcf11 LCD; Pcf11's LCD; source: E. coli, pET32-Pcf11-LCD (synthetic gene), thioredoxin fusion, purified (HisTrap, thrombin cleavage, second HisTrap)) MRYHELQQQQQQQQQQQQQQQQQQQQYHETKDMVGSYTQNSNSAIPLFGNNSDTTNQQNS	binds
–	Nab3^134 with the last 18 amino acids of Nab3 deleted (Nab3^134Δα) (domain or fragment, S. cerevisiae, UniProt P38996 669-784, looked up, Same vector as m1, so an S-tag is probably left after thrombin cleavage) SQTPMDQQQLLSAIQNLPPNVVSNLLSMAQQQQQQPHAQQQLVGLIQSMQGQAPQQQQQQLGGYSSMNSSSPPPMSTNYNGQNISAKPSAPPMSHQPPPPQQQQQQQQQQQQQQQQ	binds
